Measured values as given in paper PMC9097459.
One block for each molecule: values may come before it.

Experiments:
[1] = target: FlSp NT* (constitutive monomer mutant, Asp 41 and Lys 65 swapped); assay: SEC-MALS; settings: Superdex 75 increase SEC column
[2] = target: WT FlSp NT (N-terminal domain of flagelliform spidroin from Nephila clavipes) (Nephila clavipes); assay: SEC-MALS; Superdex 75 Increase 10/300 GL, 50 μg loaded, 20 mM MES, 150 mM NaCl, 1 mM EDTA, pH 5.5, room temperature; monomer to dimer
[3] = target: WT FlSp NT (N-terminal domain of flagelliform spidroin from Nephila clavipes) (Nephila clavipes); assay: SEC; Superdex 75 Increase 10/300 GL, 200 μl of 2 mg/ml protein, 20 mM MES, 154 mM NaCl, 1 mM EDTA, pH 5.5; apparent MW from calibrants; monomer to dimer
[4] = target: FlSp NTTrp (Phe 11 to Trp mutant of FlSp NT) (Nephila clavipes); assay: as above
FlSp NT_(E79QE84QE119Q) = assay: SEC-MALS; settings: Superdex 75 increase SEC column
[5] = target: FlSp NT_(E79QE84QE119Q) (Nephila clavipes); assay: SEC-MALS; Superdex 75 Increase 10/300 GL, 50 μg loaded, 20 mM MES, 150 mM NaCl, 1 mM EDTA, pH 5.5, room temperature; monomer to dimer
[6] = target: T1, FlSp NT_(E79QE84QE119QE130Q); assay: SEC-MALS; settings: chain shown with the change, Superdex 75 increase SEC column
T1 chain: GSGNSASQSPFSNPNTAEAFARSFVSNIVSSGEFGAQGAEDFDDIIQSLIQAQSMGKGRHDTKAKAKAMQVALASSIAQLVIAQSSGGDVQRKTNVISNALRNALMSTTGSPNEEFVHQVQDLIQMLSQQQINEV

[7] = pH 5.5 versus pH 8.0, parent: 2.0

Molecule: WT FlSp NT (N-terminal domain of flagelliform spidroin from Nephila clavipes) D41K; K65D
- other: molecular mass by SEC-MALS ([1]; pH 5.5, parent: 26.0): 13.4 kDa
- other: MW ratio between pH 5.5 and pH 8.0 [1, 7]: 1
- other: molecular mass by SEC-MALS ([1]; pH 8.0, parent: 13.1): 14.1 kDa

Molecule: WT FlSp NT (N-terminal domain of flagelliform spidroin from Nephila clavipes) (domain or fragment)
- stoichiometry N [2]: 2
- apparent MW ratio between dimer (pH 5.5) and monomer (pH 8.0) [3]: 1.3

Molecule: FlSp NT_(E79QE84QE119Q) (domain or fragment)
- MW ratio between pH 5.5 and 8.0 [5]: 1.7

B1: WT FlSp NT (N-terminal domain of flagelliform spidroin from Nephila clavipes) E79Q; E84Q; E119Q; E130Q (protein)
chain: T1 chain
- other: molecular mass by SEC-MALS ([6]; pH 5.5, parent: 26.0): 20.7 kDa
- other: MW ratio between pH 5.5 and pH 8.0 [6, 7]: 1.6
- other: molecular mass by SEC-MALS ([6]; pH 8.0, parent: 13.1): 13.1 kDa

Now from value to molecule:

- apparent MW ratio between pH 5.5 and 8.0 [4]: 1.2
Molecule: FlSp NTTrp (Phe 11 to Trp mutant of FlSp NT) (domain or fragment)

- other: molecular mass by SEC-MALS (FlSp NT_(E79QE84QE119Q); pH 5.5, parent: 26.0): 24.4 kDa
- other: molecular mass by SEC-MALS (FlSp NT_(E79QE84QE119Q); pH 8.0, parent: 13.1): 14.3 kDa
Molecule: WT FlSp NT (N-terminal domain of flagelliform spidroin from Nephila clavipes) E79Q; E84Q; E119Q
